The target in one data set is T1, FGF5 (human, UniProt P12034 21-268).
T1 sequence: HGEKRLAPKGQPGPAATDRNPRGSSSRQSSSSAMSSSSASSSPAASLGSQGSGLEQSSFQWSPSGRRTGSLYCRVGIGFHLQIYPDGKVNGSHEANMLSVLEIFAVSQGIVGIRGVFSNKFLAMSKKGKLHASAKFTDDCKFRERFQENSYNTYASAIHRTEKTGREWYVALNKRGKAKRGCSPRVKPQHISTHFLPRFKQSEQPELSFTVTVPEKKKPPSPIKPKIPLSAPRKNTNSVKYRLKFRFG
Briefly: SPR; 4 eq low-MW heparin; SPR (BIAcore X): 20 mM Tris-HCl pH 7.4, 200 mM NaCl, 5 mM MgCl2, 5 mM CaCl2, 0.05% Tween20, 4 eq low-MW heparin; temperature not stated. The conditions noted are these: protein: commercial; label: none; multi-branched loop (predicted).

The target of the next data set is T2, FGF6 (human, UniProt P10767 38-208).
T2 sequence: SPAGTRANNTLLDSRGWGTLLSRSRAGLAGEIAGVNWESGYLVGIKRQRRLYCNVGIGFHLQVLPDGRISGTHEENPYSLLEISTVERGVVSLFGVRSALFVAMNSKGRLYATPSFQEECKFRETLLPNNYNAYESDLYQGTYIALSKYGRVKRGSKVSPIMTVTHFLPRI
Briefly: SPR; 100 nM protein, 4 eq low-MW heparin; SPR (BIAcore X): 20 mM Tris-HCl pH 7.4, 200 mM NaCl, 5 mM MgCl2, 5 mM CaCl2, 0.05% Tween20, 4 eq low-MW heparin; temperature not stated. The conditions noted are these: protein: commercial; label: none; multi-branched loop (predicted).

In a further data set the target is T3, FGF4 (human, UniProt P08620 31-206).
T3 sequence: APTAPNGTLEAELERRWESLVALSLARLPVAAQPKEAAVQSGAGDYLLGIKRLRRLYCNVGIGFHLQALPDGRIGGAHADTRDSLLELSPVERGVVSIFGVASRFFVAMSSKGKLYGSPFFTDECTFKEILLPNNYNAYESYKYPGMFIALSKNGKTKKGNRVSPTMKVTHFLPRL
The data set is described as above. The conditions noted are these: protein: commercial; label: none; multi-branched loop (predicted).

Another data set deals with FGF2 (human, UniProt P09038 143-288). The data set is described as above. The note with it: protein: commercial; label: none; multi-branched loop (predicted).
Sequence of FGF2 (P09038 143-288): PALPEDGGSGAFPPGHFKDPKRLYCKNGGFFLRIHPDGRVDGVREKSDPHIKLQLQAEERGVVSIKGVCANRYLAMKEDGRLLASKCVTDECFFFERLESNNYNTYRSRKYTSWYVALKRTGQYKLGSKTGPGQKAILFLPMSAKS
In data set [1] the target is FGFR1alpha (IIIc)-Fc chimera (human, UniProt P11362 22-376). The description is as above. The conditions noted are these: protein: commercial; tags: Fc; chain copies: 2; label: none; multi-branched loop (predicted).
Sequence of FGFR1alpha (IIIc)-Fc chimera (P11362 22-376, change not shown): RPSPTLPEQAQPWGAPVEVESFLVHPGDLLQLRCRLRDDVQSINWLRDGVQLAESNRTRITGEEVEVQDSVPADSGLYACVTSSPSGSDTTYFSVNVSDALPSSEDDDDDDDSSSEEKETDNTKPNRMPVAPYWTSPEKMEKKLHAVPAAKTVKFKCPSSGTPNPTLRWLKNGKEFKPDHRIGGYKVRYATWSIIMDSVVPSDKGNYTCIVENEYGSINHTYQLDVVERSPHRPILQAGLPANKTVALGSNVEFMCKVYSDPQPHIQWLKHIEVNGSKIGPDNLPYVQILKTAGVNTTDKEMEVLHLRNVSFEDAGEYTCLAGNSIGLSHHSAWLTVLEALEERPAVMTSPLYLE
The target in the next data set is FGF1 (human, UniProt P05230 16-155). The description is as above. The conditions noted are these: protein: commercial; label: none; multi-branched loop (predicted).
Sequence of FGF1 (P05230 16-155): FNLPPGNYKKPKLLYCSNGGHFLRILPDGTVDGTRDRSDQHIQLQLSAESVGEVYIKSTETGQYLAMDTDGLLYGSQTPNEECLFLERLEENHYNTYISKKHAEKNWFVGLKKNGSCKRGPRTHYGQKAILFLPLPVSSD

B1: F5f3 (structured_RNA)
RNA: GGGCUAGCUGAUCGUACCUAGCGUGAAUCCAACACGCUUGACAUGCAAACUGCAUCCAGAUACUAACAGCUAACACCC
modifications: 2'-fluoro pyrimidines (all C and U)
One may read the Kd as the constant that tells how readily two partners part at equilibrium. As to B1, the Kd with FGF5 was 570 ± 20 pM.

B2: F5f1 (structured_RNA)
RNA: GGGCUAGCUGAUCGUACCUCUCCGUACUGACCUACAGAGCGACAUACUAGUGUAUCCAGAUACUAACAGCUAACACCC
modifications: 2'-fluoro pyrimidines (all C and U)
Take B2: in the data set with FGF5, the Kd is 700 ± 200 pM. For the same molecule, the binding result (with FGF6; in the data set with FGF4; with FGF2; in data set [1]; with FGF1) was “no binding” each time.

B3: F5f1_56 (structured_RNA)
RNA: GGGCGACCUCUCCGUACUGACCUACAGAGCGACAUACUAGUGUAUCCAGAUCGCCC
modifications: 2'-fluoro pyrimidines (all C and U)
For B3, the Kd in the data set with FGF5 was 118 ± 3 pM.

B4: F5f3_56 (structured_RNA)
RNA: GGGCGACCUAGCGUGAAUCCAACACGCUUGACAUACAAACUGCAUCCAGAUCGCCC
modifications: 2'-fluoro pyrimidines (all C and U)
On to B4, for which the Kd in the data set with FGF5 was 920 ± 40 pM.

Source of the values: PMC7858594, “Specific inhibition of FGF5-induced cell proliferation by RNA aptamers”.
